Results published in patent publication US20100154070.

Test system: piggyBac transposase (PBase) (Trichoplusia ni)
Test: cell_activity

Substance: PB[Act-RFP] donor transposon (PBL/PBR termini)
- activity (% transposon single-positive founders) (mouse pronuclear co-injection with Act-PBase, 10.4% without helper, precise excision in male germline shown with Prm1-PBase (p230)): 34.8

Substance: PB[K14-Tyr, Act-RFP] donor transposon
- activity (% founders with transposition) (mouse, 26/31 founders, Act-PBase): 83.9

Substance: PB[PGK-neo] donor transposon (PBL/PBR termini)
- activity (mouse W4/129S6 ES cells, Act-PBase helper, scale: fold drug-resistant clones vs donor alone): 50

Substance: PB[SV40-neo] donor transposon (PBL/PBR termini)
- activity (human 293 cells, CMV-PBase helper, scale: fold G418-resistant clones vs donor alone): 10
